The text below walks through data of patent US20240059782A1 (AGILENT TECHNOLOGIES, published 2024).

Experiment [1] addresses T1, recombinant fusion protein containing the entire extracellular domain of human BCMA (amino acids 1-54) in … (human, UniProt Q02223 1-54).
T1 construct: range 1-54; Expressed in HEK cells; also called BCMA antigen; extracellular BCMA antigen; not shown: rabbit Fc domain
T1 sequence (looked up): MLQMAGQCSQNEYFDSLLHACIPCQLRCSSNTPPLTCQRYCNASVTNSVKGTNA
Briefly: BLI (BLItz), recombinant antibody on the immunising antigen.

Experiment [2] addresses T2, human B-cell maturation antigen (BCMA) (human, UniProt Q02223 1-184).
T2 construct: whole, on cells; Endogenous BCMA in tissue sections and BCMA-positive cell lines; also called tumor necrosis factor receptor superfamily member 17; TNFRSF17
T2 sequence (looked up): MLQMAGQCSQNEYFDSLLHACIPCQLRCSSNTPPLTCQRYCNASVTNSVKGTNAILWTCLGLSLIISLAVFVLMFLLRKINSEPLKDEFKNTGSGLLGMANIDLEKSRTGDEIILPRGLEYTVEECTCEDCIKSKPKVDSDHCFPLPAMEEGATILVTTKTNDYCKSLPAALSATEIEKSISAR
Kind of experiment: standard IHC (Envision FLEX) on reactive lymph node.

For experiment [3], the target named is T3, recombinant fusion protein containing the entire intracellular domain of BCMA (amino acids 78-184) (human, UniProt Q02223 78-184).
T3 construct: range 78-184; also called intracellular BCMA antigen; the antigen
T3 sequence (looked up): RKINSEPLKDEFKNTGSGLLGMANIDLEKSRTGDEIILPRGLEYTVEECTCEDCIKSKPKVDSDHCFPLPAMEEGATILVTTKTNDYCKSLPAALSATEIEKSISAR
Kind of experiment: BLI (BLItz), recombinant antibody on the immunising antigen.

Experiment [4] has as its target T2, human B-cell maturation antigen (BCMA). Briefly: supersensitive IHC on reactive lymph node.
The target is the same in experiment [5]. Briefly: supersensitive IHC on normal colon.

B1: anti-human BCMA antibody clone 10A2 (Extracellular) (antibody, V domains shown)
VH: QSVEESGGRLVTPGTPLTLTCTASGFSLTTYAMGWVRQAPGKGLEWIGYIWSSGTTDYASWAKGRFTISKTSPTVDLKMTSPTTEDTATYFCARYINYVTGDLWGQGTLVTVSS
VL: AQVLTQTPSPVSADVGGTVTINCQASQSVYNNVLLAWYQQKAGQPPKLLIYKASTLASGVSSRFKGSGSGTQFTLTISGVQCDDAATYYCQGEFSCSSADCTAFGGGTEVVVKG
notes: Rabbit monoclonal IgG/kappa1; The chains are built here from V + constant entries so that the signal peptide is left out; Supersensitive IHC used B-cell culture supernatant; BLI and standard IHC used recombinant antibody from HEK293-6E cells; also called B cell clone 10A2; BCMA clone 10A2
Consider B1, for which the binding result in experiment [1] and in experiment [2] was “binds” in each case.

B2: anti-human BCMA antibody clone 5C1 (intracellular) (antibody, V domains shown)
VH: QSLEESRGGLFKPTDTLTLTCTVSGFSLKTYVINWVRQAPGNGLEWIGIIDTGDMTYYASWAKSRSTITRNTNENTVTLKMTSLTAADTATYFCASGDIWGPGTLVTVSS
VL: AQVLTQTASPVSAAVGGTVTINCQASQSVYSNWLSWFQQKPGQPPKRLIYSASTLASGVSSRFKGSGSGTQFTLTISDVQCDDAATYYCLGEFNCARADCRAFGGGTEVVVKG
notes: Rabbit monoclonal IgG/kappa1; also called B cell clone 5C1; intracellular clone 5C1
As to B2, the binding result in experiment [3] and in experiment [4] was “binds” each time.

B3: anti-human BCMA antibody clone 9H5 (Extracellular) (antibody, V domains shown)
VH: QSLEESGGRLVTPGGSLTLTCTVSGFSLSAYAMSWVRQAPGKGLEWIGYINYDGIAYYTNWAKGRFTISKTSTTVDLKITSPTTEDTAAYFCASDLLGVFNLWGQGTLVTVSS
VL: AAVLTQTASPVSAAVGGTVTINCQASQSVYSNNRLSWFQQKPGQPPKLLIYYASFLASGVPSRFKGSGSGAQFTLTISDLQCDDAATYYCAGGYISYSDNAFGGGTEVVVKG
notes: Rabbit monoclonal IgG/kappa1; The chains are built here from V + constant entries so that the signal peptide is left out; Supersensitive IHC used B-cell culture supernatant; BLI and standard IHC used recombinant antibody from HEK293-6E cells; also called B cell clone 9H5; BCMA clone 9H5
For the molecule B3, the binding result in experiment [1] and in experiment [5] was “binds” throughout.
